According to patent publication US20090068637A1:
Where a chain is given by its changes, count along the chain named.

What was measured:
[1] = biological target: HA of virus strain Oriental Magpie Robin/HK/366/2006 (avian influenza virus); assay: cell-based or functional assay
[2] = biological target: HA of H5N1 virus strain A1 (avian influenza virus H5N1); assay: cell-based or functional assay
[3] = biological target: HA of H5N1 virus strain F3 (avian influenza virus H5N1); assay: cell-based or functional assay
[4] = biological target: HA of H5N1 virus strain E2 (avian influenza virus H5N1); assay: cell-based or functional assay
[5] = biological target: HA of H5N1 virus strain A8 (avian influenza virus H5N1); assay: cell-based or functional assay
[6] = biological target: HA of H5N1 virus strain A2 (avian influenza virus H5N1); assay: cell-based or functional assay
[7] = biological target: HA of virus strain BhGs/QH/15/05 (avian influenza virus); assay: cell-based or functional assay
[8] = biological target: HA of virus strain CP Heron/HK/18/05 (avian influenza virus); assay: cell-based or functional assay
[9] = biological target: HA of H5N1 virus strain C3 (avian influenza virus H5N1); assay: cell-based or functional assay
[10] = biological target: HA of H5N1 virus strain B2 (avian influenza virus H5N1); assay: cell-based or functional assay
[11] = biological target: HA of H5N1 virus strain C2 (avian influenza virus H5N1); assay: cell-based or functional assay
[12] = biological target: HA of H5N1 virus strain E1 (avian influenza virus H5N1); assay: cell-based or functional assay
[13] = biological target: HA of H5N1 virus strain B5 (avian influenza virus H5N1); assay: cell-based or functional assay
[14] = biological target: HA of H5N1 virus strain A7 (avian influenza virus H5N1); assay: cell-based or functional assay
[15] = biological target: HA of H5N1 virus strain B8 (avian influenza virus H5N1); assay: cell-based or functional assay
[16] = biological target: HA of virus strain CK/IDN/2A/04 (avian influenza virus); assay: cell-based or functional assay
[17] = biological target: HA of H5N1 virus strain A6 (avian influenza virus H5N1); assay: cell-based or functional assay
[18] = biological target: HA of H5N1 virus strain G1 (avian influenza virus H5N1); assay: cell-based or functional assay
[19] = biological target: HA of H5N1 virus strain B4 (avian influenza virus H5N1); assay: cell-based or functional assay
[20] = biological target: HA of H5N1 virus strain B3 (avian influenza virus H5N1); assay: cell-based or functional assay
[21] = biological target: HA of H5N1 virus strain D2 (avian influenza virus H5N1); assay: cell-based or functional assay
[22] = biological target: HA of H5N1 virus strain B7 (avian influenza virus H5N1); assay: cell-based or functional assay
[23] = biological target: HA of H5N1 virus strain D1 (avian influenza virus H5N1); assay: cell-based or functional assay
[24] = biological target: HA of H5N1 virus strain A3 (avian influenza virus H5N1); assay: cell-based or functional assay
[25] = biological target: HA of H5N1 virus strain B6 (avian influenza virus H5N1); assay: cell-based or functional assay
[26] = biological target: HA of H5N1 virus strain H1 (avian influenza virus H5N1); assay: cell-based or functional assay
[27] = biological target: HA of H5N1 virus strain B1 (avian influenza virus H5N1); assay: cell-based or functional assay
[28] = biological target: HA of H5N1 virus strain F2 (avian influenza virus H5N1); assay: cell-based or functional assay
[29] = biological target: HA of virus strain DK/IDN/MS/04 (avian influenza virus); assay: cell-based or functional assay
[30] = biological target: HA of H5N1 virus strain H2 (avian influenza virus H5N1); assay: cell-based or functional assay
[31] = biological target: HA of virus strain CK/HK/213/03 (avian influenza virus); assay: cell-based or functional assay
[32] = biological target: HA of H5N1 virus strain A5 (avian influenza virus H5N1); assay: cell-based or functional assay
[33] = biological target: non-H5 viruses (14 strains; H1~H13, Chicken NDV); assay: cell-based or functional assay
[34] = biological target: H5 virus strains (thirty-four strains of H5N1 viruses); assay: cell-based or functional assay
[35] = biological target: 7aa peptide 8H5E (NSGPWLT); assay: phage ELISA: mAb coated at 5 ug/ml, phage 1:1000, anti-M13/HRP
[36] = biological target: 7aa peptide 8H5A (HGMLPVY); assay: as above
[37] = biological target: HA of H5N1 virus strain C1 (avian influenza virus H5N1); assay: cell-based or functional assay
[38] = biological target: HA of H5N1 virus strain A4 (avian influenza virus H5N1); assay: cell-based or functional assay
[39] = biological target: hemagglutinin of subtype H5 avian influenza virus (strain not stated) (avian influenza virus subtype H5)

B1: 10F7 single chain antibody (scFv)
scFv: QVQLQQPGAELVKPGASVKLSCKASGYTFTSYWMHWVKQRPGQGLEWIGEIDPSDSYTNYNQKFKGKATLTVDKSSSTAYMQLSSLTSEDSAVYYCARGGTGDFHYAMDYWGQGTSVTVSSGGGGSDILMTQSPSSMSVSLGDTVSITCHASQGISSNIGWLQQKPGKSFKGLIYHGTNLEDGVPSRFSGSGSGADYSLTISSLESEDFADYYCVQYVQFPYTFGGGTKLEIKR
B1 was tested, and the neutralization test: dilution of 10F7 scFv (fold dilution) [1] was < 1, the HI titer (n) (n (dilution 2^n)) [2] was > 8 and the HI titer (n) (n (dilution 2^n)) [3] was 0. The HI titer (n) (n (dilution 2^n)) [4] was 0, the HI titer (n) (n (dilution 2^n)) [5] was 6 and the HI titer (n) (n (dilution 2^n)) [6] was > 8. For the same binder, the neutralization test: dilution of 10F7 scFv (fold dilution) [7] was 16, the neutralization test: dilution of 10F7 scFv (fold dilution) [8] was 8 and the HI titer (n) (n (dilution 2^n)) [9] was 1. The HI titer (n) (n (dilution 2^n)) [10] was 0, the HI titer (n) (n (dilution 2^n)) [11] was 2 and the HI titer (n) (n (dilution 2^n)) [12] was 0. For the same binder, the HI titer (n) (n (dilution 2^n)) [13] was 0, the HI titer (n) (n (dilution 2^n)) [14] was 6.5 and the HI titer (n) (n (dilution 2^n)) [15] was 7. For the same binder, the neutralization test: dilution of 10F7 scFv (fold dilution) [16] was 32, the HI titer (n) (n (dilution 2^n)) [17] was 7.5 and the HI titer (n) (n (dilution 2^n)) [18] was 0. The HI titer (n) (n (dilution 2^n)) [19] was > 8, the HI titer (n) (n (dilution 2^n)) [20] was > 8 and the HI titer (n) (n (dilution 2^n)) [21] was 2.5. For the same binder, the HI titer (n) (n (dilution 2^n)) [22] was 7, the HI titer (n) (n (dilution 2^n)) [23] was 2.5 and the HI titer (n) (n (dilution 2^n)) [24] was > 8. The HI titer (n) (n (dilution 2^n)) [25] was 7, the HI titer (n) (n (dilution 2^n)) [26] was < 1 and the HI titer (n) (n (dilution 2^n)) [27] was 7. It also gave an HI titer (n) (n (dilution 2^n)) [28] of 0, a neutralization test: dilution of 10F7 scFv (fold dilution) [29] of 16 and an HI titer (n) (n (dilution 2^n)) [30] of 0. For the same binder, the neutralization test: dilution of 10F7 scFv (fold dilution) [31] was < 1 and the HI titer (n) (n (dilution 2^n)) [32] was > 8.

B2: monoclonal antibody 2F2 (antibody, V domains shown)
VH: QVQLKESGPGLVAPSQRLSITCTVSGFSLTGYGVHWIRQSPGKGLEWLGMIWAEGRTDYNSVLKSRLSINKDNSRSQVFLEMNSLQTDDTARYYCAREVITTEAWYFDVWGQGTSVTES
VL: DIVMTQSPATLSVTPGDRVSLSCRASQSISDYLYWYQQKSHESPRLLIKYASQSISGIPSRFSGSGSGSDFTLTINSVEPEDVGMYYCQNGHTFPLTFGAGTKLEIKR
B2 gave an HI assay: positive number/total virus number (of 14 strains) [33] of 0 and an HI assay: positive number/total virus number (of 34 strains) [34] of 28.

B3: monoclonal antibody 8H5 (antibody, V domains shown)
VH: QVQLQQSGAELMKPGASVKISCKATGYTFSNYWIEWIKQRPGHGLEWIGEILPGSDRTNYNGKFKGKATFTADTSSNTAHMQLSSLTSEDSAVYYCANRYDGYYFGLDYWGQGTSVAVSSA
VL: EIVLTQSPAIMSASLGEKVTMSCRASSSVNFVYWYQQRSDASPKLLIYYSSNLAPGVPPRFSGSGSGNSYSLTISGLEGEDAATYYCQHFTSSPYTFGGGTNLEIKR
Work on B3 yielded an HI assay: positive number/total virus number (of 34 strains) [34] of 34, an ELISA reading [35] of 0.25 and an ELISA reading [36] of 0.559.

B4: 4D1 chimeric antibody (antibody, V domains shown)
VH: QVQLQQPGAELVKPGASVNLSCKASGYTFTSYWMHWVKQRPGQGLEWIGEIDPSDSFTTYNQNFKDRATLTVDKSSSTAYMQLRSLTSEDSAVYYCARGGPGDFRYAMDYWGQGTSVTVSS
VL: DILMTQSPSSMSVSLGDTVSITCHASQGISSNIGWLQQKPGKSFKGLIYHGTNLEDGVPSRFSGSGSGADYSLTISSLESEDFADYYCVQYVQFPYTFGGGTKLEIKR
With B4 the HI test result [2] was 5 n, the HI test result [3] was 1 n and the HI test result [4] was 7.5 n. The HI test result [5] was 5.5 n, the HI test result [6] was 5.5 n and the HI test result [9] was 4 n. The HI test result [11] was 6 n, the HI test result [12] was 5.5 n and the HI test result [14] was 4 n. For the same binder, the HI test result [15] was 4 n, the HI test result [17] was 4.5 n and the HI test result [18] was 1 n. The HI test result [37] was 7.5 n, the HI test result [19] was 5.5 n and the HI test result [22] was 7 n. For the same binder, the HI test result [23] was 5 n, the HI test result [38] was 6 n and the HI test result [24] was 5.5 n. For the same binder, the HI test result [25] was 6.5 n, the HI test result [26] was 1 n and the HI test result [27] was > 8 n. The HI test result [28] was 1 n and the HI test result [30] was 1 n.

B5: 10F7 chimeric antibody (antibody, V domains shown)
VH: B4 VH with N19K, F57Y, T59N, N63K, D66G, R67K, R84S, P101T, R105H
VL: B4 VL
In the case of B5, the HI test result [2] is reported as 6.5 n, the HI test result [3] is reported as > 8 n and the HI test result [4] is reported as > 8 n. The HI test result [5] was 5.5 n, the HI test result [6] was 7 n and the HI test result [9] was 2.5 n. It also gave an HI test result [11] of 6 n, an HI test result [12] of 6 n and an HI test result [14] of 5.5 n. For the same binder, the HI test result [15] was 4.5 n, the HI test result [17] was 5 n and the HI test result [18] was 6.5 n. The HI test result [37] was > 8 n, the HI test result [19] was 6 n and the HI test result [22] was 7 n. For the same binder, the HI test result [23] was 2.5 n, the HI test result [38] was 7 n and the HI test result [24] was 6.5 n. For the same binder, the HI test result [25] was 6 n, the HI test result [26] was 5.5 n and the HI test result [27] was > 8 n. The HI test result [28] was 2.5 n and the HI test result [30] was 8 n.

B6: 8H5 single chain antibody (scFv)
scFv: QVQLQQSGAELMKPGASVKISCKATGYTFSNYWIEWIKQRPGHGLEWIGEILPGSDRTNYNGKFKGKATFTADTSSNTAHMQLSSLTSEDSAVYYCANRYDGYYFGLDYWGQGTSVAVSSAGGGGSEIVLTQSPAIMSASLGEKVTMSCRASSSVNFVYWYQQRSDASPKLLIYYSSNLAPGVPPRFSGSGSGNSYSLTISGLEGEDAATYYCQHFTSSPYTFGGGTNLEIKR
Work on B6 yielded an HI titer (n) (n (dilution 2^n)) [2] of 3.5, an HI titer (n) (n (dilution 2^n)) [3] of 0 and an HI titer (n) (n (dilution 2^n)) [4] of 0. For the same binder, the HI titer (n) (n (dilution 2^n)) [5] was 2.5, the HI titer (n) (n (dilution 2^n)) [6] was 4.5 and the HI titer (n) (n (dilution 2^n)) [9] was 0. For the same binder, the HI titer (n) (n (dilution 2^n)) [10] was 0, the HI titer (n) (n (dilution 2^n)) [11] was 1 and the HI titer (n) (n (dilution 2^n)) [12] was 0. For the same binder, the HI titer (n) (n (dilution 2^n)) [13] was 0, the HI titer (n) (n (dilution 2^n)) [14] was 3 and the HI titer (n) (n (dilution 2^n)) [15] was 3. It also gave an HI titer (n) (n (dilution 2^n)) [17] of 3, an HI titer (n) (n (dilution 2^n)) [18] of 0 and an HI titer (n) (n (dilution 2^n)) [19] of 5. It also gave an HI titer (n) (n (dilution 2^n)) [20] of 5, an HI titer (n) (n (dilution 2^n)) [21] of 2 and an HI titer (n) (n (dilution 2^n)) [22] of 4. It also gave an HI titer (n) (n (dilution 2^n)) [23] of 2.5, an HI titer (n) (n (dilution 2^n)) [24] of 3.5 and an HI titer (n) (n (dilution 2^n)) [25] of 3.5. The HI titer (n) (n (dilution 2^n)) [26] was 0, the HI titer (n) (n (dilution 2^n)) [27] was 4 and the HI titer (n) (n (dilution 2^n)) [28] was 0. For the same binder, the HI titer (n) (n (dilution 2^n)) [30] was 0, the HI titer (n) (n (dilution 2^n)) [32] was 4 and the average value of the testing wells (ELISA reading) [39] was 0.597.
